Test results reported in US20170313762A1.

Biological target: vasopressin V2 receptor-RlucII (hV2R wt-RlucII) (human)
Assay: cell-based or functional assay

EC50 of agonist-promoted receptor internalization (decrease of BRET between receptor-RlucII and lyn-rGFP): 2.2 µM
Substance: Oxytocin (from UniProt P01178 20-28) (peptide)
